Experimental data reported in patent US9611295B2, “Treatment of IL-17 mediated disease by blocking SEFIR-SEFIR interactions” (THE CLEVELAND CLINIC FOUNDATION, priority 2011, dated 2017).

How the values were obtained:
[1] = molecular target: T1, Act1-IL-17RA interaction (Homo sapiens, UniProt Q96F46); test: Co-immunoprecipitation of Act1 and IL-17RA in transfected HeLa cells; type: cell-based, mouse Act1, human IL-17RA; conditions: peptides 200 μM, 24 hours
T1 construct: expressed in transfected cells; host or cells: HeLa
T1 sequence (Q96F46 33-866): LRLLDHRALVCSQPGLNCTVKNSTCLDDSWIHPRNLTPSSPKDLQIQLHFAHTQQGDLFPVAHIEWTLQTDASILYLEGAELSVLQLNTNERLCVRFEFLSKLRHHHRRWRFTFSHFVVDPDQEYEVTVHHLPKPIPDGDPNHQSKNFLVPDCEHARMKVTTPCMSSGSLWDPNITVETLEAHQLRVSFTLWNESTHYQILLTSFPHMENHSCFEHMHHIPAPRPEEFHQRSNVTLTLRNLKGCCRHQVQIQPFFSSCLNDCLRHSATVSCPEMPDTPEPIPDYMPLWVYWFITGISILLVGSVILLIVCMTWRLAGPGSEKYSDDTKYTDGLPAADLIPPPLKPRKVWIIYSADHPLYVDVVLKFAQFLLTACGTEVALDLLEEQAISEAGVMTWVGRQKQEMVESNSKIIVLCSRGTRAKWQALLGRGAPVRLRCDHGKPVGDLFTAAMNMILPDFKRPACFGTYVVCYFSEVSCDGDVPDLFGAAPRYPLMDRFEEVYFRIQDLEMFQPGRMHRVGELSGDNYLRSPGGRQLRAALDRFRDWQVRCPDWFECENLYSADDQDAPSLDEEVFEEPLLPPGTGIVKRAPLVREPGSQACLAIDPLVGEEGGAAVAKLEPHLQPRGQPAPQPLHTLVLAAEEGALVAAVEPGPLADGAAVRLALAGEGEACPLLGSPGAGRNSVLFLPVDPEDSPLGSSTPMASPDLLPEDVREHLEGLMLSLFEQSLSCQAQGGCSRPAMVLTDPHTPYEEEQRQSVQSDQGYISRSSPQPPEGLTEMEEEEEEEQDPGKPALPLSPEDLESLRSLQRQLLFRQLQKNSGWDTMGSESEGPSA
Protocol: (§1) FIG. 4 provides data showing that a cell-permeable CC′ loop decoy peptide disrupts the interaction between Act1 and IL-17RA and inhibits IL-17R and IL-25R signaling. FIG. 4A provides sequences of Antennapedia homeodomain (Antp) (SEQ ID NO: 11)and decoy peptides (SEQ ID NOS 23-25 and 17, respectively, in order of appearance) with the Antp sequence underlined. FIG. 4B provides flow cytometry results based on experiments in which MEFs expressing IL-17RB were incubated for 2 or 24 hours with the indicated FITC-tagged peptides (200 μM) and were then analyzed by flow cytometry. […] The percentages of FITC-positive cells in the treated samples are shown. […] FIG. 4D provides Western blot results of experiments in which MEFs expressing IL-17RB were incubated with the indicated peptides (200 μM) for 24 hours after which they were treated with IL-17 or IL-25 and then analyzed by Western blotting with the indicated antibodies. […] The abundances of Cxcl1 and Il13 mRNAs were then measured by real-time RT-PCR. […]
(§2) Decoy peptides are based on surface-exposed regions of the primary sequence of a protein to mimic a putative interaction interface. […] These decoy peptides were also tagged at their C-termini with fluorescein isothiocyanate (FITC) to enable their cell-penetrating efficiency to be evaluated by flow cytometric sanalysis. […]

[2] = tested on: IL-25-mediated expression of Il13; test: IL-25-mediated Il13 mRNA expression in MEFs, real-time RT-PCR; type: cell-based, mouse; conditions: peptides 200 μM for 24 hours, then IL-25 for 3 hours
Protocol: as §1, §2

Sequence: DRQIKIWFQNRRMKWKKLDEDEHGLHTKY [CC′ loop decoy peptide]
- inhibition of the Act1-IL-17RA interaction (co-IP) [1]: more efficiently inhibited
- inhibition of IL-25-mediated expression of Il13 [2]: ~60 % inhibition
